Series [1] has as its target T1, NeqSSB-like protein (Nanoarchaeum equitans Kin4-M, UniProt Q74MP9 2-243).
T1 sequence: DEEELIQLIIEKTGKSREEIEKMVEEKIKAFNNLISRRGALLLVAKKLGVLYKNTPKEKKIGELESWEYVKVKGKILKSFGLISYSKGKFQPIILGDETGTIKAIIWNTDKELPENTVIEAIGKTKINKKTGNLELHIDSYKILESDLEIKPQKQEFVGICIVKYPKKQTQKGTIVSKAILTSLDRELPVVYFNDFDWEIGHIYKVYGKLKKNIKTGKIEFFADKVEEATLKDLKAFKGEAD
Description: EMSA; 10 pmol DNA; smeary shift; EMSA: 20 mM Tris-HCl pH 7.5, 100 mM NaCl, 1 mM EDTA, 25 C, 10 min; fluorescence: 20 mM Tris-HCl pH 7.5, 1 mM EDTA, 2/100/500 mM NaCl, 25 C; SPR: 10 mM Hepes pH. The settings on record: protein: recombinant; tags: N-terminal His tag with TEV site, removed by TEV; label: 5' fluorescein. (A gel shift assay detects complexes by their altered migration in electrophoresis.)

For series [2], the target named is EcoSSB (Escherichia coli, UniProt P0AGE0 1-178). Description: SPR; kon 3.45e4 1/Ms; koff 1.85e-4 1/s; EMSA: 20 mM Tris-HCl pH 7.5, 100 mM NaCl, 1 mM EDTA, 25 C, 10 min; fluorescence: 20 mM Tris-HCl pH 7.5, 1 mM EDTA, 2/100/500 mM NaCl, 25 C; SPR: 10 mM Hepes pH. To be noted: protein: recombinant; chain copies: 4; label: 3' biotin.
The target in series [3] is T1, NeqSSB-like protein. Description: SPR; kon 7.91e3 1/Ms; koff 2.39e-2 1/s; EMSA: 20 mM Tris-HCl pH 7.5, 100 mM NaCl, 1 mM EDTA, 25 C, 10 min; fluorescence: 20 mM Tris-HCl pH 7.5, 1 mM EDTA, 2/100/500 mM NaCl, 25 C; SPR: 10 mM Hepes pH. To be noted: protein: recombinant; tags: N-terminal His tag with TEV site, removed by TEV; label: 3' biotin. For orientation: In SPR one partner is held on a chip, and binding of the other changes the refractive index at the surface.

Series [4] concerns the target T1, NeqSSB-like protein. Description: SPR; kon 8.30e3 1/Ms; koff 4.89e-2 1/s; EMSA: 20 mM Tris-HCl pH 7.5, 100 mM NaCl, 1 mM EDTA, 25 C, 10 min; fluorescence: 20 mM Tris-HCl pH 7.5, 1 mM EDTA, 2/100/500 mM NaCl, 25 C; SPR: 10 mM Hepes pH. To be noted: protein: recombinant; tags: N-terminal His tag with TEV site, removed by TEV; label: 3' biotin on strand 1; blunt.
Series [5] addresses T1, NeqSSB-like protein. Description: competition EMSA; mixed with 100 bp dsDNA; ssDNA bound preferentially at low protein; EMSA: 20 mM Tris-HCl pH 7.5, 100 mM NaCl, 1 mM EDTA, 25 C, 10 min; fluorescence: 20 mM Tris-HCl pH 7.5, 1 mM EDTA, 2/100/500 mM NaCl, 25 C; SPR: 10 mM Hepes pH. The settings on record: protein: recombinant; tags: N-terminal His tag with TEV site, removed by TEV; label: 5' fluorescein.

The target of series [6] is T1, NeqSSB-like protein. The experiment in a line: EMSA; 10 pmol DNA; EMSA: 20 mM Tris-HCl pH 7.5, 100 mM NaCl, 1 mM EDTA, 25 C, 10 min; fluorescence: 20 mM Tris-HCl pH 7.5, 1 mM EDTA, 2/100/500 mM NaCl, 25 C; SPR: 10 mM Hepes pH. The settings on record: protein: recombinant; tags: N-terminal His tag with TEV site, removed by TEV; label: 5' fluorescein.

The Kd is the free concentration of one partner at which half of the binding sites on the other are occupied at equilibrium, for simple one-to-one binding.

EcoSSB, sequence (P0AGE0 whole entry): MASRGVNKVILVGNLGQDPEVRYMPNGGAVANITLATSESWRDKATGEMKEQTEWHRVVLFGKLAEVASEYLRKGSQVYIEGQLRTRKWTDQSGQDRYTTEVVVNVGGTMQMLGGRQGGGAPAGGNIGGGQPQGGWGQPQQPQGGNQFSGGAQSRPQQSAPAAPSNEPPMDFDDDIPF

On to TTTTTTTTTTTTTTTTTTTTTTTTTTTTTTTTTTT (ssDNA) [(dT)35], for which the binding result in series [1] is on record as “binds”.

B1: ssDNA 60-mer (ssDNA)
DNA: AATTCTGGGTGTGTGGGTGTGTGGGTGTGTGGGTGTGGTCAAGTTGACTACGTATACATC
Take B1: the Kd is 5.36 nM in series [2] and 2660 nM in series [3].

B2: dsDNA 60-mer (dsDNA)
DNA 1: B1 DNA
DNA 2: GATGTATACGTAGTCAACTTGACCACACCCACACACCCACACACCCACACACCCAGAATT
Take B2: the Kd in series [4] is 5260 nM.

B3: (dT)76 (ssDNA)
DNA: TTTTTTTTTTTTTTTTTTTTTTTTTTTTTTTTTTTTTTTTTTTTTTTTTTTTTTTTTTTTTTTTTTTTTTTTTTTT
Consider B3, for which the binding result in series [5] was “binds”.

B4: (dT)120 (ssDNA)
DNA: TTTTTTTTTTTTTTTTTTTTTTTTTTTTTTTTTTTTTTTTTTTTTTTTTTTTTTTTTTTTTTTTTTTTTTTTTTTTTTTTTTTTTTTTTTTTTTTTTTTTTTTTTTTTTTTTTTTTTTTT
Take B4: the binding result in series [6] is “binds”.

These data come from article PMC4431734, “Characterization of a Single-Stranded DNA-Binding-Like Protein from Nanoarchaeum equitans—A Nucleic Acid Binding Protein with Broad Substrate Specificity”.
